Test results: publication PMC10043188

Biological target: T1, His-tagged Arc, wild type, purified, Q9WV31
T1 chain: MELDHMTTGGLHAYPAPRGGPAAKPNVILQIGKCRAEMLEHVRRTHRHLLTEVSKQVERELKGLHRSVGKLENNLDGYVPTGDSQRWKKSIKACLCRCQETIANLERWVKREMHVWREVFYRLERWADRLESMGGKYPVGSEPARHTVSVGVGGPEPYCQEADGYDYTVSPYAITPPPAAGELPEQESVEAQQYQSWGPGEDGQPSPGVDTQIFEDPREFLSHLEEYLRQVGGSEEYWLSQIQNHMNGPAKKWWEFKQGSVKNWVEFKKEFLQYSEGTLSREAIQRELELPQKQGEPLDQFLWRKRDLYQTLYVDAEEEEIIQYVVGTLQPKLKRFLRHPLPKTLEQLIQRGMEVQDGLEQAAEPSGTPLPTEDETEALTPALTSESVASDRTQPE
Experiment: SDS-PAGE under non-reducing conditions; purified His-Arc in SDS sample buffer without 2-mercaptoethanol, heated 5 min at 95°C; total protein stain and anti-Arc immunoblot
Details: remark: other sources report otherwise

stoichiometry N: 2
B1: His-tagged Arc, wild type, purified, Q9WV31 1-396 (natural protein)
chain: MELDHMTTGGLHAYPAPRGGPAAKPNVILQIGKCRAEMLEHVRRTHRHLLTEVSKQVERELKGLHRSVGKLENNLDGYVPTGDSQRWKKSIKACLCRCQETIANLERWVKREMHVWREVFYRLERWADRLESMGGKYPVGSEPARHTVSVGVGGPEPYCQEADGYDYTVSPYAITPPPAAGELPEQESVEAQQYQSWGPGEDGQPSPGVDTQIFEDPREFLSHLEEYLRQVGGSEEYWLSQIQNHMNGPAKKWWEFKQGSVKNWVEFKKEFLQYSEGTLSREAIQRELELPQKQGEPLDQFLWRKRDLYQTLYVDAEEEEIIQYVVGTLQPKLKRFLRHPLPKTLEQLIQRGMEVQDGLEQAAEPSGTPLPTEDETEALTPALTSESVASDRTQPE
